Target: the molecule itself
Test: western blot of cell lysates

B1: serine racemase (enzyme, rat (endogenous in primary microglia), UniProt Q76EQ0 1-333, looked up)
chain: MCAQYCISFADVEKAHLNIQDSVHLTPVLTSSILNQIAGRNLFFKCELFQKTGSFKIRGALNAIRGLIPDTLEGKPKAVVTHSSGNHGQALTYAAKLEGIPAYIVVPQTAPNCKKLAIQAYGASIVYSEPSDESRENVAQRIIQETEGILVHPNQEPAVIAGQGTIALEVLNQVPLVDALVVPVGGGGMVAGIAITIKTLKPSVKVYAAEPSNADDCYQSKLKGELTPNLHPPETIADGVKSSIGLNTWPIIRDLVDDVFTVTEDEIKYATQLVWERMKLLIEPTAGVGLAAVLSQHFQTVSPEVKNICIVLSGGNVDLTSLSWVKQAERPAP
- stoichiometry N: 2
